Several values for one entry are separate records, joined by “and”; a condition that tells them apart may be missing. Equal entries are not always repeated. One block for each substance: values may come before it.
How the values were obtained:
[1] = biological target: monkey BCMA on cells (monkey); test: FACS, Flp-in CHO-monkey BCMA cells
[2] = biological target: human BCMA on cells (human) (UniProt Q02223); test: cell ELISA, Flp-inCHO-human BCMA cells; Ab 33.33 nM
[3] = biological target: monkey BCMA-His protein (monkey); test: ELISA, monkey BCMA-His coated; Ab 0.001 nM
Chain of monkey BCMA-His protein (monkey) (A0A2K5 entry or part of it limits assumed): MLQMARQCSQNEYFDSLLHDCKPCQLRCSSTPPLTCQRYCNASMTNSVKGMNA

[4] = biological target: human BCMA on cells (human) (UniProt Q02223); test: FACS, H929 cells
[5] = biological target: human BCMA on cells (human) (UniProt Q02223); test: cell ELISA, Flp-inCHO-human BCMA cells; Ab 100.00 nM
[6] = biological target: monkey BCMA-His protein (monkey); test: ELISA, monkey BCMA-His coated; Ab 10 nM
[7] = biological target: human BCMA-His protein (human) (UniProt Q02223); test: ELISA, human BCMA-His coated; Ab 1 nM
Chain of human BCMA-His protein (human) (Q02223 1-54 limits assumed): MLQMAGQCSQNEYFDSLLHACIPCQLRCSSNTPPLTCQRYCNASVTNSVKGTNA

[8] = biological target: human BCMA on cells (human) (UniProt Q02223); test: FACS, RPMI8226 cells
[9] = biological target: human BCMA-His protein (human) (UniProt Q02223); test: ELISA, human BCMA-His coated; Ab 10 nM
[10] = biological target: human BCMA on cells (human) (UniProt Q02223); test: cell ELISA, Flp-inCHO-human BCMA cells; Ab 0.02 nM
[11] = biological target: monkey BCMA-His protein (monkey); test: ELISA, monkey BCMA-His coated; Ab 0.0001 nM
[12] = biological target: monkey BCMA-His protein (monkey); test: ELISA, monkey BCMA-His coated; Ab 1 nM
[13] = biological target: human BCMA-His protein (human) (UniProt Q02223); test: ELISA, human BCMA-His coated; Ab 0.1 nM
[14] = biological target: human BCMA on cells (human) (UniProt Q02223); test: cell ELISA, Flp-inCHO-human BCMA cells; Ab 1.23 nM
[15] = biological target: human BCMA on cells (human) (UniProt Q02223); test: cell ELISA, Flp-inCHO-human BCMA cells; Ab 0.14 nM
[16] = biological target: monkey BCMA-His protein (monkey); test: ELISA, monkey BCMA-His coated; Ab 1 nM; remark: listed apart in the source
[17] = biological target: human BCMA-His protein (human) (UniProt Q02223); test: ELISA, human BCMA-His coated; Ab 0.001 nM
[18] = biological target: human BCMA-His protein (human) (UniProt Q02223); test: ELISA, human BCMA-His coated; Ab 0.0001 nM
[19] = biological target: monkey BCMA-His protein (monkey); test: ELISA, monkey BCMA-His coated; Ab 0.01 nM
[20] = biological target: human BCMA-His protein (human) (UniProt Q02223); test: ELISA, human BCMA-His coated; Ab 10 nM; remark: listed apart in the source
[21] = biological target: human BCMA on cells (human) (UniProt Q02223); test: cell ELISA, Flp-inCHO-human BCMA cells; Ab 3.70 nM
[22] = biological target: monkey BCMA-His protein (monkey); test: ELISA, monkey BCMA-His coated; Ab 0.1 nM
[23] = biological target: human BCMA on cells (human) (UniProt Q02223); test: cell ELISA, Flp-inCHO-human BCMA cells; Ab 0.05 nM
[24] = biological target: human BCMA on cells (human) (UniProt Q02223); test: FACS, RPMI8226 cells; remark: listed apart in the source
[25] = biological target: human BCMA on cells (human) (UniProt Q02223); test: FACS, U266 cells
[26] = biological target: monkey BCMA-His protein (monkey); test: ELISA, monkey BCMA-His coated; Ab 0.1 nM; remark: listed apart in the source
[27] = biological target: human BCMA on cells (human) (UniProt Q02223); test: cell ELISA, Flp-inCHO-human BCMA cells; Ab 0.41 nM
[28] = biological target: monkey BCMA-His protein (monkey); test: ELISA, monkey BCMA-His coated; Ab 0.001 nM; remark: listed apart in the source
[29] = biological target: monkey BCMA-His protein (monkey); test: ELISA, monkey BCMA-His coated; Ab 100 nM
[30] = biological target: human BCMA on cells (human) (UniProt Q02223); test: cell ELISA, Flp-inCHO-human BCMA cells; Ab 0.002 nM
[31] = biological target: human BCMA on cells (human) (UniProt Q02223); test: FACS, U266 cells; remark: listed apart in the source
[32] = biological target: human BCMA on cells (human) (UniProt Q02223); test: FACS, Flp-in CHO-human BCMA cells
[33] = biological target: monkey BCMA-His protein (monkey); test: ELISA, monkey BCMA-His coated; Ab 100 nM; remark: listed apart in the source
[34] = biological target: human BCMA-His protein (human) (UniProt Q02223); test: ELISA, human BCMA-His coated; Ab 0.0001 nM; remark: listed apart in the source
[35] = biological target: monkey BCMA-His protein (monkey); test: ELISA, monkey BCMA-His coated; Ab 10 nM; remark: listed apart in the source
[36] = biological target: human BCMA on cells (human) (UniProt Q02223); test: cell ELISA, Flp-inCHO-human BCMA cells; Ab 11.11 nM
[37] = biological target: human BCMA on cells (human) (UniProt Q02223); test: FACS, H929 cells; remark: listed apart in the source
[38] = biological target: human BCMA on cells (human) (UniProt Q02223); test: cell ELISA, Flp-inCHO-human BCMA cells; Ab 0.01 nM
[39] = biological target: monkey BCMA-His protein (monkey); test: ELISA, monkey BCMA-His coated; Ab 0.0001 nM; remark: listed apart in the source
[40] = biological target: human BCMA-His protein (human) (UniProt Q02223); test: ELISA, human BCMA-His coated; Ab 100 nM
[41] = biological target: human BCMA-His protein (human) (UniProt Q02223); test: ELISA, human BCMA-His coated; Ab 0.01 nM
[42] = biological target: human BCMA-His protein (human) (UniProt Q02223); test: competition ELISA vs hAPRIL-biotin on coated human BCMA; antibody 0.14 nM
[43] = biological target: human BCMA-His protein (human) (UniProt Q02223); test: competition ELISA vs hAPRIL-biotin on coated human BCMA; antibody 0.41 nM
[44] = biological target: human BCMA-His protein (human) (UniProt Q02223); test: competition ELISA vs hAPRIL-biotin on coated human BCMA; antibody 33.33 nM
[45] = biological target: human BCMA-His protein (human) (UniProt Q02223); test: competition ELISA vs hAPRIL-biotin on coated human BCMA; antibody 11.11 nM
[46] = biological target: human BCMA-His protein (human) (UniProt Q02223); test: competition ELISA vs hAPRIL-biotin on coated human BCMA; antibody 1.23 nM
[47] = biological target: human BCMA-His protein (human) (UniProt Q02223); test: competition ELISA vs hAPRIL-biotin on coated human BCMA; antibody 3.70 nM
[48] = biological target: human BCMA-His protein (human) (UniProt Q02223); test: competition ELISA vs hAPRIL-biotin on coated human BCMA; antibody 100.00 nM

Chain of human BCMA on cells (human) (Q02223 whole entry): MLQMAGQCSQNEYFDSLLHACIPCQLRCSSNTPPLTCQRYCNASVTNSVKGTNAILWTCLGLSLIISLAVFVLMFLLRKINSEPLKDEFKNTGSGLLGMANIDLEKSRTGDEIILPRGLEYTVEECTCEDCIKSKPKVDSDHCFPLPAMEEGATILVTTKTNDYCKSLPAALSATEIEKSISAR

Cell mean fluorescence density [1]: 49 | OD450 [2]: 0.09 and 0.14 | OD450 [3]: 0.05 | Maximum mean fluorescence intensity [4]: 110 | OD450 [5]: 0.11 and 0.28 | OD450 [6]: 0.06 | OD450 [7]: 0.05 | Maximum mean fluorescence intensity [8]: 81 and 107 | OD450 [9]: 0.27 and 0.12 | OD450 [10]: 0.08 and 0.1 | OD450 [11]: 0.05 | OD450 [12]: 0.06 and 0.17 | OD450 [13]: 0.05 | OD450 [14]: 0.08 and 0.09 | OD450 [15]: 0.08 and 0.09 | OD450 [16]: 0.05 | OD450 [17]: 0.05 | OD450 [18]: 0.06 and 0.09 | OD450 [19]: 0.04 | OD450 [20]: 0.07 | OD450 [21]: 0.08 and 0.09 | OD450 [22]: 0.08 and 0.19 | OD450 [23]: 0.08 and 0.09 | Maximum mean fluorescence intensity [24]: 118 | Maximum mean fluorescence intensity [25]: 103 | OD450 [26]: 0.05 | OD450 [27]: 0.08 and 0.09 | OD450 [28]: 0.06 and 0.17 | OD450 [29]: 0.08 and 0.18 | OD450 [30]: 0.08 and 0.09 | Maximum mean fluorescence intensity [31]: 86 and 101 | Cell mean fluorescence density [32]: 54.6 | OD450 [33]: 0.1 | OD450 [34]: 0.05 | OD450 [35]: 0.08 | OD450 [36]: 0.08 and 0.1 | Maximum mean fluorescence intensity [37]: 94 and 69 | OD450 [38]: 0.08 and 0.09 | OD450 [39]: 0.06 and 0.08 | OD450 [40]: 0.12 | OD450 [41]: 0.05
Substance: anti-hel-hIgG1 (negative control antibody against hen egg lysozyme)

OD450 [42]: 1.43 OD450 and 1.28 OD450 and 1.63 OD450 | OD450 [43]: 1.41 OD450 and 1.31 OD450 and 1.48 OD450 | OD450 [44]: 1.41 OD450 and 1.31 OD450 and 1.46 OD450 | OD450 [45]: 1.39 OD450 and 1.24 OD450 and 1.51 OD450 | OD450 [46]: 1.43 OD450 and 1.27 OD450 and 1.53 OD450 | OD450 [47]: 1.38 OD450 and 1.29 OD450 and 1.53 OD450 | OD450 [48]: 1.54 OD450 and 1.45 OD450 and 1.57 OD450
Substance: anti-hel-hIgG1 (antibody)

Source: patent US20250297021A1
